PMC5122770, “Homodimerization of the Lymph Vessel Endothelial Receptor LYVE-1 through a Redox-labile Disulfide Is Critical for Hyaluronan Binding in Lymphatic Endothelium*^([image sbox.jpg])” (The Journal of Biological Chemistry, 2016)

What was measured:
[1] = target: the molecule itself; assay: non-reducing SDS-PAGE with Western blot; CHO cell-derived soluble protein dissolved in LDS sample buffer with NEM; non-reducing
[2] = target: the molecule itself; assay: non-reducing SDS-PAGE with Western blot; mouse liver and lung tissue, minced and lysed with 5 mM NEM; non-reducing
[3] = target: the molecule itself; assay: non-reducing SDS-PAGE with Western blot; freshly resected mouse ear skin and lymph node, minced and lysed with 5 mM NEM; non-reducing
[4] = target: the molecule itself; assay: non-reducing SDS-PAGE with Western blot; whole cell lysate of primary HDLEC lysed without NEM; non-reducing; polyclonal LYVE-1 antibody
[5] = target: the molecule itself; assay: non-reducing SDS-PAGE with Western blot; cells lysed in LDS sample buffer with 5 mM NEM; non-reducing; polyclonal LYVE-1 antibody, densitometry (Licor Odyssey)

B1: hLYVE-1 Δ238 His10 (soluble full ectodomain, wild type) (domain or fragment, human, UniProt Q9Y5Y7 20-238, looked up)
chain: LVQGSLRAEELSIQVSCRIMGITLVSKKANQQLNFTEAKEACRLLGLSLAGKDQVETALKASFETCSYGWVGDGFVVISRISPNPKCGKNGVGVLIWKVPVSRQFAAYCYNSSDTWTNSCIPEIITTKDPIFNTQTATQTTEFIVSDSTYSVASPYSTIPAPTTTPPAPASTSIPRRKKLICVTEVFMETSTMSTETEPFVENKAAFKNEAAGFGGVPT
notes: signal peptide in the construct (forward primer begins 14 nt before the start ATG); LYVE-1, human, full-length extracellular domain terminating after residue number 238; secreted from CHO cells; Recovered as a mixture of monomers and disulfide-linked dimers; the homodimer was separated by multiple rounds of size exclusion chromatography; also called soluble hLYVE-1 ectodomain; WT LYVE-1 His10; …
- binding result [1]: binds

B2: mouse LYVE-1 (native receptor in mouse tissues) (receptor, mouse (endogenous in mouse tissues), UniProt Q8BHC0 24-318, looked up)
chain: ADLVQDLSISTCRIMGVALVGRNKNPQMNFTEANEACKMLGLTLASRDQVESAQKSGFETCSYGWVGEQFSVIPRIFSNPRCGKNGKGVLIWNAPSSQKFKAYCHNSSDTWVNSCIPEIVTTFYPVLDTQTPATEFSVSSSAYLASSPDSTTPVSATTRAPPLTSMARKTKKICITEVYTEPITMATETEAFVASGAAFKNEAAGFGGVPTALLVLALLFFGAAAVLAVCYVKRYVKAFPFTTKNQQKEMIETKVVKEEKADDVNANEESKKTIKNPEEAKSPPKTTVRCLEAEV
notes: LYVE-1, mouse, endogenous in tissue lysates; source: endogenous, lysates of freshly resected mouse ear skin, lymph node, liver and lung
- homodimer:monomer ratio [2]: ~2 homodimer:monomer
- stoichiometry N [3]: 2

B3: LYVE-1 (native receptor in primary human dermal lymphatic endothelial cells) (receptor, human (endogenous in HDLEC), UniProt Q9Y5Y7 20-322, looked up)
chain: LVQGSLRAEELSIQVSCRIMGITLVSKKANQQLNFTEAKEACRLLGLSLAGKDQVETALKASFETCSYGWVGDGFVVISRISPNPKCGKNGVGVLIWKVPVSRQFAAYCYNSSDTWTNSCIPEIITTKDPIFNTQTATQTTEFIVSDSTYSVASPYSTIPAPTTTPPAPASTSIPRRKKLICVTEVFMETSTMSTETEPFVENKAAFKNEAAGFGGVPTALLVLALLFFGAAAGLGFCYVKRYVKAFPFTNKNQQKEMIETKVVKEEKANDSNPNEESKKTDKNPEESKSPSKTTVRCLEAEV
notes: LYVE-1, human, endogenous receptor of primary human dermal lymphatic endothelial cells; glycosylated; also called lymphatic vessel endothelial receptor LYVE-1; hLYVE-1; source: endogenous, primary HDLEC whole cell lysate
- stoichiometry N [4]: 2

B4: full-length wild-type hLYVE-1 (in HEK 293T cells) (receptor, human, UniProt Q9Y5Y7 20-322, looked up)
chain: LVQGSLRAEELSIQVSCRIMGITLVSKKANQQLNFTEAKEACRLLGLSLAGKDQVETALKASFETCSYGWVGDGFVVISRISPNPKCGKNGVGVLIWKVPVSRQFAAYCYNSSDTWTNSCIPEIITTKDPIFNTQTATQTTEFIVSDSTYSVASPYSTIPAPTTTPPAPASTSIPRRKKLICVTEVFMETSTMSTETEPFVENKAAFKNEAAGFGGVPTALLVLALLFFGAAAGLGFCYVKRYVKAFPFTNKNQQKEMIETKVVKEEKANDSNPNEESKKTDKNPEESKSPSKTTVRCLEAEV
notes: also called wild-type receptor; source: HEK 293T, transfected, in lysate
- dimer:monomer ratio [5]: 2 dimer:monomer
